Measurements: patent publication CN115975019A (INST PATHOGEN BIOLOGY CAMS, dated 2023)

Target: SARS-CoV-2 刺突RBD蛋白 (Sinobiological) (SARS-CoV-2, UniProt P0DTC2 319-541)

B1: A46抗体 (antibody, V domains shown)
VH: EVQLLESGGGLIQPGGSLRLSCAVSEFIVSRNYMSWVRQAPGKGLEWVSVLYPGGSTFYADSVKGRFTISRDESTNTLFLQMNTLRVEDTAVYYCARDFGDFYFDFWGQGTLVTVSS
VL: EIVLTQSPGTLSLSPGQRAALSCRASQSVSTYLAWYQQKPGQAPRLLIHDASSRASGVPDRFSGTGSGTDFTLTITRLEPEDFAVYYCQQYGTSPRTFGQGTKLEIK
notes: also called 抗体A46
  EC50: 0.0355 µg/mL
  IC50: 0.703 µg/mL

B2: A70抗体 (antibody, V domains shown)
VH: QITLKESGPTLVKPTQTLTLTCTFSGFSLDTPGVAIGWIRQPPGRALEWLGLIYWDGDERYNPSLTSRVTLTKDTSKNQVVLTMTNVDSVDTGTYFCGHKTIPTIFGVWGQGAPVTVSS
VL: QSALTQPASVSGSPGQSITISCAATSGDFGVFNYVSWYQQHPGKAPKLIIFEVSSRPSGVSNRFSGSKSGNTASLTVSGLQAEDEAVYHCSSYSTSSVVFGGGTKLTVL
notes: also called 抗体A70
  EC50: 0.0511 µg/mL
  IC50: 0.515 µg/mL
